{"source": "patent US20100292083A1", "about": "(Ablynx, published 2010)", "data": [{"target": "T1, human IL6R (human, UniProt P08887 20-358, limits assumed)", "T1 construct": "Antigen of the Biacore experiments; the construct is not described (biotinylated IL6R from Peprotech was used for the selections)", "T1 sequence (looked up)": "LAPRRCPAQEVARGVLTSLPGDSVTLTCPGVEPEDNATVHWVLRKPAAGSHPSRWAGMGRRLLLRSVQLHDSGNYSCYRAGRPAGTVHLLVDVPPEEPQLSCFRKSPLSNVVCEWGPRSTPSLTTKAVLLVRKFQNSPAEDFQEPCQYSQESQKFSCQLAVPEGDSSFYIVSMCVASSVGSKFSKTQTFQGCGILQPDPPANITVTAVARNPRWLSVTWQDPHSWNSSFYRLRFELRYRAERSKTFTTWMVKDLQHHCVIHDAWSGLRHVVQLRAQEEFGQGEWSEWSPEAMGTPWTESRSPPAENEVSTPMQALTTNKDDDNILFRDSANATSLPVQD", "test": "SPR (Biacore), periplasmic extract", "values": [{"binder": "32C9PMP2_C9 (VHH, name in Kabat numbering, Humanized 32C9 variant) VHH: EVQLVESGGGLVQAGGSLRLSCAASGFTFDDYDIGWFRQAPGKGREGVSGISSSDGNTYYADSVKGRFTISSDNAKNTLYLQMNSLKAEDTAVYYCAREPPDSSWYLDGSPEFFKYWGQGTLVTVSS", "binding result": "no binding"}, {"binder": "32C9PMP2_E7 (VHH, name in Kabat numbering, Humanized 32C9 variant) VHH: EVQLVESGGGLVQAGGSLRLSCAASGFTFSDYDIGWFRQAPGKEREWVSGISSSDGNTYYADSVKGRFTISRDNAKNTLYLQMNSLRPEDTAVYYCAREPPDSSWYLDGSPEFFKYWGQGTLVTVSS", "binding result": "no binding"}, {"binder": "32C9PMP1_H6 (VHH, name in Kabat numbering, Humanized 32C9 variant) VHH: EVQLVESGGGLVQPGGSLRLSCAASGFTFDDYDIGWFRQAPGKELEGVSGISSSDGNTYYADSVKGRFTISRDNAKNTLYLQMNSLKAEDTAVYYCAREPPDSSWYLDGSPEFFKYWGQGTQVTVSS", "binding result": "no binding"}, {"binder": "32C9PMP2_B4 (VHH, name in Kabat numbering, Humanized 32C9 variant) VHH: EVQLVESGGGLVQPGGSLRLSCAASGFTFDDYDIGWFRQAPGKELEGVSGISSSDGNTYYADSVKGRFTISSDNAKNTVYLQMNSLRPEDTAVYYCAREPPDSSWYLDGSPEFFKYWGQGTQVTVSS", "binding result": "no binding"}, {"binder": "32C9PMP1_A11 (VHH, name in Kabat numbering, Humanized 32C9 variant) VHH: EVQLVESGGGLVQPGGSLRLSCAASGFTFSDYDIGWVRQAPGKEREWVSGISSSDGNTYYADSVKGRFTISSDNAKNTVYLQMNSLKAEDTAVYYCAREPPDSSWYLDGSPEFFKYWGQGTLVTVSS", "binding result": "no binding"}, {"binder": "32C9PMP1_G8 (VHH, name in Kabat numbering, Humanized 32C9 variant) VHH: EVQLVESGGGLVQPGGSLRLSCAASGFTFSDYDIGWFRQAPGKGREGVSGISSSDGNTYYADSVKGRFTISSDNAKNTVYLQMNSLKAEDTAVYYCAREPPDSSWYLDGSPEFFKYWGQGTLVTVSS", "binding result": "no binding"}, {"binder": "32C9PMP1_D5 (VHH, name in Kabat numbering, Humanized 32C9 variant) VHH: EVQLVESGGGLVQPGGSLRLSCAASGFTFDDYDIGWVRQAPGKGREGVSGISSSDGNTYYADSVKGRFTISSDNAKNTLYLQMNSLRPEDTAVYYCAREPPDSSWYLDGSPEFFKYWGQGTLVTVSS", "binding result": "no binding"}, {"binder": "32C9PMP1_A3 (VHH, name in Kabat numbering, Humanized 32C9 variant) VHH: EVQLVESGGGLVQAGGSLRLSCAASGFTFSDYDIGWVRQAPGKGREGVSGISSSDGNTYYADSVKGRFTISRDNAKNTVYLQMNSLKAEDTAVYYCAREPPDSSWYLDGSPEFFKYWGQGTQVTVSS", "binding result": "no binding"}, {"binder": "32C9PMP2_D8 (VHH, name in Kabat numbering, Humanized 32C9 variant) VHH: EVQLVESGGGLVQPGGSLRLSCAASGFTFSDYDIGWFRQAPGKEREGVSGISSSDGNTYYADSVKGRFTISRDNAKNTVYLQMNSLKAEDTAVYYCAREPPDSSWYLDGSPEFFKYWGQGTQVTVSS", "binding result": "no binding"}, {"binder": "32C9PMP2_D9 (VHH, name in Kabat numbering, Humanized 32C9 variant) VHH: EVQLVESGGGLVQPGGSLRLSCAASGFTFSDYDIGWFRQAPGKGREGVSGISSSDGNTYYADSVKGRFTISSDNAKNTVYLQMNSLRPEDTAVYYCAREPPDSSWYLDGSPEFFKYWGQGTLVTVSS", "binding result": "no binding"}, {"binder": "32C9PMP2_E6 (VHH, name in Kabat numbering, Humanized 32C9 variant) VHH: EVQLVESGGGLVQPGGSLRLSCAASGFTFSDYDIGWFRQAPGKEREGVSGISSSDGNTYYADSVKGRFTISRDNAKNTVYLQMNSLKAEDTAVYYCAREPPDSSWYLDGSPEFFKYWGQGTLVTVSS", "binding result": "no binding"}, {"binder": "32C9PMP2_C4 (VHH, name in Kabat numbering, Humanized 32C9 variant) VHH: EVQLVESGGGLVQAGGSLRLSCAASGFTFDDYDIGWFRQAPGKEREWVSGISSSDGNTYYADSVKGRFTISSDNAKNTVYLQMNSLKAEDTAVYYCAREPPDSSWYLDGSPEFFKYWGQGTLVTVSS", "binding result": "no binding"}, {"binder": "32C9PMP2_F2 (VHH, name in Kabat numbering, Humanized 32C9 variant) VHH: EVQLVESGGGLVQAGGSLRLSCAASGFTFDDYDIGWVRQAPGKEREWVSGISSSDGNTYYADSVKGRFTISSDNAKNTLYLQMNSLRPEDTAVYYCAREPPDSSWYLDGSPEFFKYWGQGTLVTVSS", "binding result": "no binding"}, {"binder": "32C9PMP1_G9 (VHH, name in Kabat numbering, Humanized 32C9 variant) VHH: EVQLVESGGGLVQPGGSLRLSCAASGFTFDDYDIGWVRQAPGKELEGVSGISSSDGNTYYADSVKGRFTISSDNAKNTVYLQMNSLKAEDTAVYYCAREPPDSSWYLDGSPEFFKYWGQGTLVTVSS", "binding result": "no binding"}, {"binder": "32C9PMP1_G3 (VHH, name in Kabat numbering, Humanized 32C9 variant) VHH: EVQLVESGGGLVQPGGSLRLSCAASGFTFSDYDIGWFRQAPGKGREGVSGISSSDGNTYYADSVKGRFTISRDNAKNTLYLQMNSLRPEDTAVYYCAREPPDSSWYLDGSPEFFKYWGQGTQVTVSS", "binding result": "no binding"}, {"binder": "32C9PMP2_D5 (VHH, name in Kabat numbering, Humanized 32C9 variant) VHH: EVQLVESGGGLVQPGGSLRLSCAASGFTFDDYDIGWVRQAPGKELEGVSGISSSDGNTYYADSVKGRFTISRDNAKNTVYLQMNSLKAEDTAVYYCAREPPDSSWYLDGSPEFFKYWGQGTLVTVSS", "binding result": "no binding"}, {"binder": "32C9PMP2_A5 (VHH, name in Kabat numbering, Humanized 32C9 variant) VHH: EVQLVESGGGLVQPGGSLRLSCAASGFTFDDYDIGWVRQAPGKGREGVSGISSSDGNTYYADSVKGRFTISSDNAKNTVYLQMNSLRPEDTAVYYCAREPPDSSWYLDGSPEFFKYWGQGTLVTVSS", "binding result": "no binding"}, {"binder": "32C9PMP1_F9 (VHH, name in Kabat numbering, Humanized 32C9 variant) VHH: EVQLVESGGGLVQPGGSLRLSCAASGFTFSDYDIGWFRQAPGKEREWVSGISSSDGNTYYADSVKGRFTISRDNAKNTVYLQMNSLKAEDTAVYYCAREPPDSSWYLDGSPEFFKYWGQGTLVTVSS", "binding result": "no binding"}, {"binder": "32C9PMP2_C12 (VHH, name in Kabat numbering, Humanized 32C9 variant) VHH: EVQLVESGGGLVQAGGSLRLSCAASGFTFDDYDIGWVRQAPGKEREWVSGISSSDGNTYYADSVKGRFTISSDNAKNTLYLQMNSLKAEDTAVYYCAREPPDSSWYLDGSPEFFKYWGQGTLVTVSS", "binding result": "no binding"}, {"binder": "32C9PMP1_A2 (VHH, name in Kabat numbering, Humanized 32C9 variant) VHH: EVQLVESGGGLVQPGGSLRLSCAASGFTFDDYDIGWVRQAPGKEREWVSGISSSDGNTYYADSVKGRFTISSDNAKNTVYLQMNSLKAEDTAVYYCAREPPDSSWYLDGSPEFFKYWGQGTLVTVSS", "binding result": "no binding"}, {"binder": "32C9PMP1_A4 (VHH, name in Kabat numbering, Humanized 32C9 variant) VHH: EVQLVESGGGLVQPGGSLRLSCAASGFTFDDYDIGWFRQAPGKEREWVSGISSSDGNTYYADSVKGRFTISSDNAKNTLYLQMNSLRPEDTAVYYCAREPPDSSWYLDGSPEFFKYWGQGTQVTVSS", "binding result": "no binding"}, {"binder": "32C9PMP2_B7 (VHH, name in Kabat numbering, Humanized 32C9 variant) VHH: EVQLVESGGGLVQAGGSLRLSCAASGFTFSDYDIGWFRQAPGKGREGVSGISSSDGNTYYADSVKGRFTISRDNAKNTLYLQMNSLKAEDTAVYYCAREPPDSSWYLDGSPEFFKYWGQGTLVTVSS", "binding result": "no binding"}, {"binder": "32C9PMP1_B11 (VHH, name in Kabat numbering, Humanized 32C9 variant) VHH: EVQLVESGGGLVQAGGSLRLSCAASGFTFSDYDIGWFRQAPGKGREGVSGISSSDGNTYYADSVKGRFTISRDNAKNTVYLQMNSLKAEDTAVYYCAREPPDSSWYLDGSPEFFKYWGQGTQVTVSS", "binding result": "no binding"}, {"binder": "32C9PMP1_H1 (VHH, name in Kabat numbering, Humanized 32C9 variant) VHH: EVQLVESGGGLVQPGGSLRLSCAASGFTFSDYDIGWVRQAPGKGREGVSGISSSDGNTYYADSVKGRFTISRDNAKNTVYLQMNSLKAEDTAVYYCAREPPDSSWYLDGSPEFFKYWGQGTQVTVSS", "binding result": "no binding"}, {"binder": "32C9PMP1_H8 (VHH, name in Kabat numbering, Humanized 32C9 variant) VHH: EVQLVESGGGLVQAGGSLRLSCAASGFTFDDYDIGWVRQAPGKGREGVSGISSSDGNTYYADSVKGRFTISRDNAKNTLYLQMNSLRPEDTAVYYCAREPPDSSWYLDGSPEFFKYWGQGTLVTVSS", "binding result": "no binding"}, {"binder": "32C9PMP1_B4 (VHH, name in Kabat numbering, Humanized 32C9 variant) VHH: EVQLVESGGGLVQPGGSLRLSCAASGFTFSDYDIGWFRQAPGKGREGVSGISSSDGNTYYADSVKGRFTISSDNAKNTLYLQMNSLKAEDTAVYYCAREPPDSSWYLDGSPEFFKYWGQGTQVTVSS", "binding result": "no binding"}, {"binder": "32C9PMP1_D7 (VHH, name in Kabat numbering, Humanized 32C9 variant) VHH: EVQLVESGGGLVQPGGSLRLSCAASGFTFDDYDIGWVRQAPGKEREWVSGISSSDGNTYYADSVKGRFTISRDNAKNTLYLQMNSLKAEDTAVYYCAREPPDSSWYLDGSPEFFKYWGQGTLVTVSS", "binding result": "no binding"}, {"binder": "32C9PMP1_E2 (VHH, name in Kabat numbering, Humanized 32C9 variant) VHH: EVQLVESGGGLVQAGGSLRLSCAASGFTFSDYDIGWVRQAPGKGREGVSGISSSDGNTYYADSVKGRFTISRDNAKNTLYLQMNSLKAEDTAVYYCAREPPDSSWYLDGSPEFFKYWGQGTLVTVSS", "binding result": "no binding"}, {"binder": "32C9PMP2_C10 (VHH, name in Kabat numbering, Humanized 32C9 variant) VHH: EVQLVESGGGLVQPGGSLRLSCAASGFTFDDYDIGWVRQAPGKGREGVSGISSSDGNTYYADSVKGRFTISSDNAKNTLYLQMNSLKAEDTAVYYCAREPPDSSWYLDGSPEFFKYWGQGTLVTVSS", "binding result": "no binding"}, {"binder": "32C9PMP2_A10 (VHH, name in Kabat numbering, Humanized 32C9 variant) VHH: EVQLVESGGGLVQAGGSLRLSCAASGFTFSDYDIGWVRQAPGKGREGVSGISSSDGNTYYADSVKGRFTISRDNAKNTLYLQMNSLKAEDTAVYYCAREPPDSSWYLDGSPEFFKYWGQGTQVTVSS", "binding result": "no binding"}]}]}
